B1: soluble α-DG (receptor)
chain: HWPSEPSEAVRDWENQLEASMHSVLSDLHEALPTVVGIPDGTAVVGRSFRVTIPTDLIGSSGEVIKVSTAGKEVLPSWLHWDPQSHTLEGLPLDTDKGVHYISVSAAQLDANGSHIPQTSSVFSIEVYPEDHSEPQSVRAASPDLGEAAASACAAEEPVTVLTVILDADLTKMTPKQRIDLLHRMQSFSEVELHNMKLVPVVNNRLFDMSAFMAGPGNAKKVVENGALLSWKLGCSLNQNSVPDIRGVEAPAREGTMSAQLGYPVVGWHIANKKPPLPKRIRRQIHATPTPVTAIGPPTTAIQEPPSRIVPTPTSPAIAPPTETMAPPVRDPVPGKPTVTTRTRGAIIQTPTLGPIQPTRVSDAGTVVSGQIRATVTIPGYVEPTAVATPPTTTTKKPRVSTPKPATPSTDSSATTTRRPTKKPRTPRPVPRVTTKAPITRLETASPPTRIRTTTSGVPRGGEPNQRPELKNHIDRVDAWVGTYFEVKIPSDTFYDKEDTTTDKLKLTLKLREQQLVGEKSWVQFNSNSQLMYGLPDSSHVGKHEYFMHATDKGGLSAVDAFEIHVHKRPQGDKAPARFKAKFVGDPAPVVNDIHKKIALVKKLAFAFGDRNCSTVTLQNITRG

Experiments:
[1] = target: purified α-dystroglycan (α-DG) (UniProt Q28685); assay: far-Western, overlay or dot blot
[2] = target: high affinity virus binders; assay: competitive inhibition binding assay
[3] = target: low affinity viral binders; assay: competitive inhibition binding assay

Row | Molecule | logs higher affinity than WE c2.2 [1] [logs] | concentration of soluble α-DG for 33% blocking of virus binding to α-DG cells [2] [nM] | concentration of soluble α-DG needed to block virus binding to α-DG cells [3] [nM]
1 | LCMV WE c54 (purified virus; viral glycoprotein GP1/GP2) (complex) | 3 |  | 
2 | B1 |  | 1 to 4 | > 400

— PMC2193355
